# According to US20130071428A1:
# How the values were obtained:
# [1] = biological target: … (18-mer) with Ahx-Lys(biotin) (Clostridium tetani); assay: Tettox ELISA, biotinylated peptide on streptavidin plate
# [2] = biological target: … (18-mer) with Ahx-Lys(biotin) (Clostridium tetani)
# [3] = biological target: J Z F I G I T E L K K L E S K I N K V F (Clostridium tetani)
# [4] = biological target: J Z SKFIGITELKKLESKINKVF (Clostridium tetani)
# [5] = biological target: J Z Z F I G I T E L K K L E S K I N K V F (Clostridium tetani)
# [6] = biological target: J Z Z SKFIGITELKKLESKINKVF (Clostridium tetani)
# [7] = biological target: b1, neg contr. (Clostridium tetani); assay: Tettox ELISA, negative control peptide; antibody source not named in Table 4
substance,measurement,setting,value
TetaQuin® (antibody),OD,[1],2.3 OD
same,ELISA OD,"Ala scan of …, # 7",1.24 OD
same,ELISA OD,"Ala scan of …, # 14",1.1 OD
same,ELISA OD,"Ala scan of …, # 4",0.65 OD
same,ELISA OD,"Ala scan of …, # 2",1.12 OD
same,ELISA OD,"Ala scan of …, # 19",1.26 OD
same,ELISA OD,"Ala scan of …, # 11",0.7 OD
same,ELISA OD,"Ala scan of …, # 9",0.62 OD
same,ELISA OD,"Ala scan of …, # 13",1.27 OD
same,ELISA OD,"Ala scan of …, # 15",0.88 OD
same,ELISA OD,"Ala scan of …, # 6",0.38 OD
same,ELISA OD,"Ala scan of …, # 16",1.37 OD
same,ELISA OD,"Ala scan of …, # 18",1.24 OD
same,ELISA OD,"Ala scan of …, # 3",1.04 OD
same,ELISA OD,"Ala scan of …, # 10",1.06 OD
same,ELISA OD,[2],1.26 OD
same,ELISA OD,"Ala scan of …, # 5",0.3 OD
same,ELISA OD,"Ala scan of …, # 12",0.85 OD
same,ELISA OD,"Ala scan of …, # 17",1.3 OD
same,ELISA OD,"Ala scan of …, # 8",0.9 OD
same,OD (column without a head),[3],0.17 OD
same,OD (column without a head),[4],0.28 OD
same,OD (column without a head),[5],0.22 OD
same,OD (column without a head),[6],0.47 OD
same,OD (column without a head),[7],0.12 OD
